Test results published in IntAct's records for PubMed 23824069.

B1: Phosphatidylinositol 4,5-bisphosphate 3-kinase catalytic subunit gamma isoform (Homo sapiens), P48736 (parent)
chain: MELENYKQPVVLREDNCRRRRRMKPRSAAASLSSMELIPIEFVLPTSQRKCKSPETALLHVAGHGNVEQMKAQVWLRALETSVAADFYHRLGPHHFLLLYQKKGQWYEIYDKYQVVQTLDCLRYWKATHRSPGQIHLVQRHPPSEESQAFQRQLTALIGYDVTDVSNVHDDELEFTRRGLVTPRMAEVASRDPKLYAMHPWVTSKPLPEYLWKKIANNCIFIVIHRSTTSQTIKVSPDDTPGAILQSFFTKMAKKKSLMDIPESQSEQDFVLRVCGRDEYLVGETPIKNFQWVRHCLKNGEEIHVVLDTPPDPALDEVRKEEWPLVDDCTGVTGYHEQLTIHGKDHESVFTVSLWDCDRKFRVKIRGIDIPVLPRNTDLTVFVEANIQHGQQVLCQRRTSPKPFTEEVLWNVWLEFSIKIKDLPKGALLNLQIYCGKAPALSSKASAESPSSESKGKVQLLYYVNLLLIDHRFLLRRGEYVLHMWQISGKGEDQGSFNADKLTSATNPDKENSMSISILLDNYCHPIALPKHQPTPDPEGDRVRAEMPNQLRKQLEAIIATDPLNPLTAEDKELLWHFRYESLKHPKAYPKLFSSVKWGQQEIVAKTYQLLARREVWDQSALDVGLTMQLLDCNFSDENVRAIAVQKLESLEDDDVLHYLLQLVQAVKFEPYHDSALARFLLKRGLRNKRIGHFLFWFLRSEIAQSRHYQQRFAVILEAYLRGCGTAMLHDFTQQVQVIEMLQKVTLDIKSLSAEKYDVSSQVISQLKQKLENLQNSQLPESFRVPYDPGLKAGALAIEKCKVMASKKKPLWLEFKCADPTALSNETIGIIFKHGDDLRQDMLILQILRIMESIWETESLDLCLLPYGCISTGDKIGMIEIVKDATTIAKIQQSTVGNTGAFKDEVLNHWLKEKSPTEEKFQAAVERFVYSCAGYCVATFVLGIGDRHNDNIMITETGNLFHIDFGHILGNYKSFLGINKERVPFVLTPDFLFVMGTSGKKTSPHFQKFQDICVKAYLALRHHTNLLIILFSMMLMTGMPQLTSKEDIEYIRDALTVGKNEEDAKKYFLDQIEVCRDKGWTVQFNWFLHLVLGIKQGEKHSA
partner: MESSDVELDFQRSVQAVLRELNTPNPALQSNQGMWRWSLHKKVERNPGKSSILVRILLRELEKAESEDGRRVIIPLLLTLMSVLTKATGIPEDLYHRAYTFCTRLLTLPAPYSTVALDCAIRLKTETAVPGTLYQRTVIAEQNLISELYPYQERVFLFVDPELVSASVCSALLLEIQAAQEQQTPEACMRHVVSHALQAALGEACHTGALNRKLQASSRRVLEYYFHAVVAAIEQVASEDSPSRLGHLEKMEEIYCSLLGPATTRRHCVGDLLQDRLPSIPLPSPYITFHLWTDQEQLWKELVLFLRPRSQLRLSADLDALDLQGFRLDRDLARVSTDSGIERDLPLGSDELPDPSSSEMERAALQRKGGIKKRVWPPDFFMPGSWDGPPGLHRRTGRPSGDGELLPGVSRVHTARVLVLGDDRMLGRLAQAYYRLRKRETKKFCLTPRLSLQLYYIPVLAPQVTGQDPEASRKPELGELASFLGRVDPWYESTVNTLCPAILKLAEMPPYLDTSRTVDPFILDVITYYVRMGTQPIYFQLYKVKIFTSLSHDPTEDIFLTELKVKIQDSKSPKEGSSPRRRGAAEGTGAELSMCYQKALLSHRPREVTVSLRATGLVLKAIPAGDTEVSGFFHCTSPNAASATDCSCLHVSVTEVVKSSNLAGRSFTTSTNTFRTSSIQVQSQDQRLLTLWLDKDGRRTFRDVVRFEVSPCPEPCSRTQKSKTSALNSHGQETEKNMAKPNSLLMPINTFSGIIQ

Variants of: B1
Settings: with pi3r6_mouse Pik3r6, Q3U6Q4

Question: With S582D as the variant, how does the “effect of a mutation on the interaction” value read?
Answer: decreasing interaction strength

Question: S582E was tested. Which “effect of a mutation on the interaction” value did it give?
Answer: decreasing interaction strength
